Source: the supplement of paper PMC10567573

B1: FBXO3 (parent)
chain: DEEERRRRVFDVPIRRRRCSRLF

Variants of: B1
Experiment: protein stability index of a GFP-peptide fusion (GPS, HEK-293T) (PSI 1-6); higher = more stable
Settings: c terminus: native
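Note: lentivirally expressed fusions sorted by FACS into six bins by GFP to DsRed ratio, PSI derived from sequencing read proportions per bin multiplied by bin number.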

Protein stability index: each site, then its substitutions
V9: A 3.43, L 2.53, Q 3.45, H 3.54, D 4.46, S 3.47, G 3.87, N 3.75, R 2.71, M 2.47, C 2.74, W 2.94, I 2.42, Y 2.64, E 4.03, T 3.65, P 3.44, F 2.19, K 3.72
V12: M 2.47, A 3.05, P 2.98, F 2.6, N 2.28, R 3.62, D 2.71, Y 2.78, K 3.25, T 2.75, Q 3.24, L 2.61, G 3.26, E 2.81, C 1.73, S 3.24, H 2.69, I 2.32, W 2.66
D11: T 2.84, F 1.89, I 2.93, G 2.65, N 3.06, V 1.99, M 2.08, H 2.19, W 1.76, E 2.68, Y 1.67, K 2.51, P 3.34, L 2.33, S 2.75, C 1.53, Q 2.4, R 2.25, A 2.73
I14: F 2.2, A 2.64, N 2.25, P 3.4, C 2.38, T 3.66, H 2.48, E 2.46, D 2.14, Q 2.53, L 2.56, M 2.63, V 3.27, G 3.04, K 3.78, W 2.7, S 2.49, R 3.33, Y 2.4
R8: L 2.94, I 2.88, H 3.1, W 2.4, V 3.66, S 3.01, Q 3.66, T 3.86, K 2.87, G 4.29, M 2.89, P 3.63, Y 1.95, N 3.35
R16: L 2.19, M 2.21, V 2.27, S 2.28, Y 1.72, G 3.45, T 2.19, P 3.45, W 1.99, D 2.22, N 2.21, I 2.2, Q 2.24, H 2.23, F 1.93, C 1.91, E 2.55, A 2.53, K 3.51
R15: K 3.65, Q 2.27, C 2.99, T 2.72, D 2.27, H 1.85, M 1.72, I 2.31, V 2.78, G 2.74, Y 1.88, S 2.39, L 1.98, P 2.56, E 2.44, N 2.21, A 2.88, F 1.93
R17: C 1.71, A 2.5, D 2.17
P13: Q 2.2, N 2.07, L 3.65, M 2.19, G 2.24, C 2.98, R 1.72, W 2.87, E 2.15, D 2.15, F 3.42, K 2.9, V 2.89, A 2.46, Y 2.8, S 2.23, T 1.44, H 2.95
F10: Y 3.22, R 3.85, C 3.43, W 2.09, T 4.33, K 4.19, V 3.94, S 4.54, E 4.16, A 4.88, M 3.87, D 4.51, L 3.06, Q 4.56, G 4.62, I 3.84, P 4.32, N 4.45, H 4.08
